For assay [1], the system named is tyrosine sulfation (sulfotyrosine-containing sfGFP production). Description: green fluorescent protein assay of tyrosine sulfotransferase activity. It counts as cell-based, Escherichia coli. Conditions: BL21(DE3), pBad vector, sfGFP134TAG reporter, LB medium.
Description: To explore the activity of these sulfotransferases towards tyrosine, a green fluorescent protein assay was used (Chen et al., 2018; Chen et al., 2019). […] The suppressor plasmid (pUltra-sulfotyrosine) was used to suppress the amber codon (Asp134TAG) within a sfGFP variant encoded by the pLei-sfGFP134TAG plasmid in the presence of sulfotyrosine. Expression of full-length sfGFP was carried out in LB medium for 16 hours in parallel with controls BL21(DE3) harboring pUltra-sulfotyrosine, pLei-sfGFP134TAG and pBad-Empty in the presence and absence of exogenously fed 1 mM sulfotyrosine.
In assay [2] the target is T1, thrombin (Homo sapiens, UniProt P00734). Description: chromogenic thrombin amidolytic activity assay. The class given is biochemical. Conditions: tight-binding model, Morrison equation; inhibitors expressed in E. coli, sulfotyrosine biosynthesized; read-out: Ki, inhibition of thrombin activity. Here is the method: FIG. 18: Inhibition constants (Ki) of all thrombin inhibitors used in this study: Ki+standard error were calculated based on a tight-binding model, using Morrison equation in Prism. Standard errors were calculated from n=3 independent samples.
To test the thrombin inhibiting activity of the wild type inhibitors and their sulfotyrosine-containing mutants, chromogenic thrombin amidolytic activity assays were performed in the presence of a range of concentrations of each inhibitor. […] Double sulfation of chimadanin at both Tyr28 and Tyr31 further improved its Ki to 0.1 nM, consistent with the madanin-1 study. […] This may be due to the fact that co-translational folding is more efficient than that achieved via chemical synthesis.

The target in assay [3] is T1, thrombin. The conditions noted are these: sulfated versus unsulfated hirudin; cited from earlier work.

*: point of attachment. sulfate = O=S(=O)(O)*

B1: A0A091VQH7: putative sulfotransferase from Nipponia nippon, SEQ ID NO: 1 (protein)
chain: IALDKMEDLSLKETVVSRAEICEVEGIPFTKPICSTWDQVWKFKARPDDLLIATYTKAGTTWTQEIVDMIQQNGDVEKCRRATTYRRHPFLEWSIQEPPAASYSGLELAEAMPSPRTIKTHLPVQLLPPSFWEQNCKIIYVARNAKDNLVSYYHFHRMSKEMPDPGTWEEFMEKFMTGKVLWGSWYDHVKGWWKAKDRHRILYLFYEDMKENPKQEIQKILKFLEKDVNQEVLNKILHNTSFEIMKDNPMTNYTTEFQGIMDHSISPFMRKGVVGDWKNYFTVAQNEKFDEDYKKKMADTSLVFRTEL
modifications: Nipponia nippon
In the case of B1, the “increase in fluorescence compared to cells not given exogenous sulfotyrosine” value in assay [1] turned out to be 2.5 fold.

B2: Madanin-1 sulfated at both Tyr32 and Tyr35 (protein)
chain: MYPERDSAKEGNQEQERALHVKVQKRTDGDADY(sulfate)DEY(sulfate)EEDGTTPTPDPTAPTAKPRLRGNKPHHHHHH
On to B2, for which, in the assay with thrombin [2], the Ki – broadly, the equilibrium dissociation constant of an inhibitor or competing ligand from its target – was found to be 0.5 nM.

B3: hirudin: thrombin inhibitor; tyrosine-sulfated form compared with unsulfated; SEQ ID NO: 109 in Table 1 (protein, listed as Hirudo medicinalis)
chain: MKKNIAFLLASMFVFSIATNAYAMRYTACTESGQNQCICEGNDVCGQGRNCQFDSSGKKCVEGEGTRKPQNEGQHDFDPIPEEYLSHHHHHH
modifications: tyrosine sulfation
On to B3, for which the “increase of affinity for thrombin by tyrosine sulfation” value with thrombin [3] is “more than 10 fold”.

B4: wildtype chimadanin: thrombin inhibitor from the salivary gland of Haemaphysalis longicornis, His-tagged, expressed in E. coli; Table 1 sequence names seem swapped (protein)
chain: MQPKEKTKGVEVEGNPATLISARQMDVSYDEYEDNGPDVIPGEPAKPRGGPKNGAASGKFDQIPDFSSESHHHHHHH
Regarding B4, the Ki with thrombin [2] turned out to be 12.9 nM.
